This note sets out measurements from PMC7452893 (Nature Communications, 2020).

Holding throughout (settings): both partners purified
Assay [1] deals with T1, SARS-CoV-2 spike S1 subunit (SARS-CoV-2, Wuhan-Hu-1 (QHD43416), UniProt P0DTC2).
T1 construct: also called S1 domain
Put plainly: ELISA; direct ELISA; plates coated with 2 μg/ml recombinant spike, S1, RBD or NTD; scFv-Fc detected with AP-conjugated anti-human IgG; specificity panel (Fig. 1c).

The target of assay [2] is SARS-CoV-2 spike N-terminal domain (NTD) (SARS-CoV-2, Wuhan-Hu-1 (QHD43416), UniProt P0DTC2). The description is as above.
Assay [3] concerns the target T1, SARS-CoV-2 spike S1 subunit. Put plainly: ELISA; direct ELISA; S1 as coating antigen (2 μg/ml), antibody diluted in series; apparent KD (Fig. 1d).

B1: MD47 (antibody, V domains shown)
V domain 1: QMQLVQSGGGLVQPGGSLRLSCAASGFTFSSYAMSWVRQAPGKGLEWVSAISSGGSTYYADSVKGRFTISRDNSKNTLYLQMNSLRAEDTAVYYCAKDLVTAPSYEAFDIWGQGTMITVSS
V domain 2: NFMLTQPPSVSVAPGKTARITCGGNNIGSKSVHWYQQKPGQAPVLVIYYDSDRPSGIPERFSGSNSGNTATLTISRVEAGDEADYYCQVWDSSSHHHVVFGGGTKGTVL
notes: scFv-Fc format; also called MD47 scFv-Fc
With B1, the binding result in assay [1] was “binds”; in assay [2] it was “no binding”.

B2: MD62 (antibody, V domains shown)
VH: EVQLVQSGGGLIQPGGSLRLSCAASGVTVSSNYMTWVRQAPGKGLEWVSLIYSGGSTYYADSVKGRFTISRDNSKNTLYLQMNSLRAEDTAVYYCARDLQYYGMDVWGQGTMVTVSS
VL: AIRMTQSPSSVSASVGDRVTITCRASQDIGSWLGWYQQKPGKAPKLLIYAASSLAGGVPSRFSGSGSGTDFTLTISSLQPEDFATYYCQQANSFPLTFGGGTKLEIK
notes: scFv-Fc format; also called MD62 scFv-Fc
As for B2, the binding result in assay [2] was “no binding”.

B3: MD45 (antibody, V domains shown)
VH: EVQLVQSGGGLVQPGGSLRLSCAASGFTVSSNYMTWVRQAPGKGLEWVSVIYSGGSTFYADSVKGRFTISRHNSKNTLYLQMNSLRAEDTAVYYCARDLSVRGGMDVWGQGTMVTVSS
VL: EIVLTQSPGTLSLSPGERATLSCRASQSVNSSYLAWYQQKPGQAPRLLIYGASNRATGIPDRFSGSGSGTDFTLTISRLEPEDFAVYYCQQYGVSPEIIFGQGTRLEIK
notes: scFv-Fc format; also called MD45 scFv-Fc
For the molecule B3, in assay [3], the Kd amounted to 12.7 nM. For the same molecule, the binding result in assay [2] is reported as “no binding”.

B4: MD67 (antibody, V domains shown)
VH: EVQLVESGGGLVQPGGSLRLSCAASGFTVSSNYMTWVRQAPGKGLEWVSVIYSGGSTFYADSVKGRFTISRHNSKNTLYLQMNSLRAEDTAVYYCARDLSVRGGMDVWGQGTTVTVSS
VL: not shown
notes: scFv-Fc format; also called MD67 scFv-Fc
On to B4, for which, in assay [2], the binding result was “no binding”.

B5: MD17 (antibody, V domains shown)
VH: EVQLLESGGGLVQPGGSLRLSCSASGFTFSTYVMNWVRQAPGKGLEHVSGISSDGGITYYADSVKGRFTISRDNSKNTLYLQMSSLRVEDTAVYYCVKDQDSSSWYDAFDIWGQGTMVTVSS
VL: DIVMTQSPSSLSASVGDRVTITCRASQSISNYLNWYQQKLGKAPKLLTYAASRLQSGVPSRFSASGSGTEFTLTISSLQPEDFATYYCQQSYTTPLTFGGGTKLEIK
notes: scFv-Fc format; also called MD17 scFv-Fc
B5: in assay [2], the binding result is given as “no binding”.

B6: MD29 (antibody, V domains shown)
VH: QMQLVQSGGGLVQPGGSLRLSCSASGFTFSTYVMNWVRQAPGKGPEHVSGISSDGGITYYADSVKGRFTISRDNSKNTLYLQMSSLRVEDTAVYYCVKDQDSSSWYDAFDIWGQGTMVTVSS
VL: NIRLTQSPSSLSASVGDRVTITCRATQSISSYLNWYQQKPGKAPNLLIYAASSLQSGVPSRFSGSGSGTDFTLTISSLQPEDFATYYCHQTYTSPYTFGQGTKLEIK
notes: scFv-Fc format; also called MD29 scFv-Fc
For B6, in assay [2], the binding result is recorded as “no binding”.

B7: MD63 (antibody, V domains shown)
VH: QVTLKESGGGVVQPGRSLRLSCAASGFTFSSYAMHWVRQAPGKGLEHVSAISSDGGITYFADSVKGRFTISRDNSRNTLFLQMSSLRVEDTAVYYCVKDQDSNSWYDAFDIWGRGTMVTVSS
VL: not shown
notes: scFv-Fc format; also called MD63 scFv-Fc
In the case of B7, the Kd in assay [3] worked out at 15.6 nM. Also, the binding result in assay [2] was “no binding”.
